The source of these data is paper PMC11209835 (Cell metabolism, 2024).

This assay has as its target T1, Flag-HA-tagged ALOX12, purified (UniProt P18054 1-663).
T1 sequence (looked up): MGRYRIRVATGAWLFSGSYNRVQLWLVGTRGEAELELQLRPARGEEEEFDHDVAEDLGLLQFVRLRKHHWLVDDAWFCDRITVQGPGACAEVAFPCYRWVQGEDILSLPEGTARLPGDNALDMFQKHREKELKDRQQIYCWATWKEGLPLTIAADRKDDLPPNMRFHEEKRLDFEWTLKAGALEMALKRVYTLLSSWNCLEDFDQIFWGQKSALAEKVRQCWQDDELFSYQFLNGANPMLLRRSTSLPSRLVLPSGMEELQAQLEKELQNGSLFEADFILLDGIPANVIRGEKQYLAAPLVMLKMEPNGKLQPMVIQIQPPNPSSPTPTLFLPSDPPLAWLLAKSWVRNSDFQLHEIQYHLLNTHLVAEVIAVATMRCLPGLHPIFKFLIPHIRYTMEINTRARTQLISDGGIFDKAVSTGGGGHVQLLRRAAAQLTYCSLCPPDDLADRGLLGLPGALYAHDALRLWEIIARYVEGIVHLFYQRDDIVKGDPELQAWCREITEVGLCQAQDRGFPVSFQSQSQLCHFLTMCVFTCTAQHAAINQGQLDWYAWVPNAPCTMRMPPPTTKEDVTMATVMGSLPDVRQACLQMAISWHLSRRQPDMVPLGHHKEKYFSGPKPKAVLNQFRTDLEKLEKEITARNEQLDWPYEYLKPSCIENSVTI
Briefly: pull-down.

B1: GST-PHLDA2 Full-length (amino acids 1-152) (natural protein, human, UniProt Q53GA4 1-152, looked up)
chain: MKSPDEVLREGELEKRSDSLFQLWKKKRGVLTSDRLSLFPASPRARPKELRFHSILKVDCVERTGKYVYFTIVTTDHKEIDFRCAGESCWNAAIALALIDFQNRRALQDFRSRQERTAPAAPAEDAVAAAAAAPSEPSEPSRPSPQPKPRTP
With B1, the binding result is recorded as “binds”.

B2: GST-PHLDA2-PH (amino acids 7-101) (domain or fragment, human, UniProt Q53GA4 7-101, looked up)
chain: VLREGELEKRSDSLFQLWKKKRGVLTSDRLSLFPASPRARPKELRFHSILKVDCVERTGKYVYFTIVTTDHKEIDFRCAGESCWNAAIALALIDF
Consider B2, for which the binding result is “binds”.
